T1: rh-IL-8 72 aa form, monocyte derived (human, UniProt P10145 28-99)
T1 construct: mature; also called IL-8M; IL-8Mpepretech
T1 sequence (looked up): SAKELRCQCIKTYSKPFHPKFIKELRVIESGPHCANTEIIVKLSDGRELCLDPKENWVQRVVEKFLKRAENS

T2: recombinant human IL-8 (form not stated for this assay) (human, UniProt P10145 28-99, limits assumed)
T2 construct: also called rhIL-8
T2 sequence (looked up): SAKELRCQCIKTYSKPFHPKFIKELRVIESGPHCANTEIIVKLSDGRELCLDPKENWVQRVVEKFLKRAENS

T3: rh-IP-10 (human, UniProt P02778 22-98)
T3 sequence (looked up): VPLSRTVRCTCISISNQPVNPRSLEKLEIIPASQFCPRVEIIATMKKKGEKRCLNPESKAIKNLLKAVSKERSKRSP

T4: recombinant human (rh) GRO-α (human, UniProt P09341 35-107)
T4 sequence (looked up): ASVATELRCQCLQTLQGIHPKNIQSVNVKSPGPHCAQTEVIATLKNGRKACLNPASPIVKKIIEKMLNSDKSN

T5: rh-GRO-β (human, UniProt P19875 35-107)
T5 sequence (looked up): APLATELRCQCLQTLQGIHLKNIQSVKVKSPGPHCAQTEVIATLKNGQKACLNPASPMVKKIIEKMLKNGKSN


Tests used:
[1] = target: T1, rh-IL-8 72 aa form, monocyte derived; test: cell-based or functional assay
[2] = target: recombinant human IL-8 (form not stated for this assay) (human) (UniProt P10145); test: competition: varying murine anti-IL-8 antibody against 0.25 nM [125I]-rhIL-8 binding to IL-8 receptors (CXCR1, CXCR2) on human neutrophils, filter plate, gamma counting; x axis printed 'IL-8 (nM)'
[3] = target: T2, recombinant human IL-8 (form not stated …); test: competition: varying 10F8 against 0.25 nM [125I]-rhIL-8 binding to IL-8 receptors (CXCR1, CXCR2) on human neutrophils, filter plate, gamma counting; x axis printed 'IL-8 (nM)'
Procedure: The ability of HuMab 10F8 to inhibit radiolabeled IL-8 binding to IL-8 receptors (CXCR1 and CXCR2) on neutrophils was assessed as follows:
(§1) Neutrophils were enriched from heparinized whole blood from normal volunteers. The blood was layered on Ficoll-hypaque and centrifuged at 1500 rpm for 30 minutes. The mononuclear cell layer was removed, and erythrocytes were hypotonically lysed. The resulting neutrophils were resuspended in PBS containing 0.1% BSA and 0.02% Na azide (0.1% PBA) and held on ice. The IL-8 binding assay was performed as previously described (Yang et al, (1999) J. Leukoc. Biol. 66:401-410). Briefly, in a final volume of 150 μl, 4×10⁵ neutrophils were incubated from 1.5-3 hours on ice with 0.25 nM [¹²⁵I] recombinant human IL-8 (Amersham Life Sciences, Piscataway, N.J.) along with varying concentrations of 10F8 (hybridoma-derived), 10F8 (transfectoma-derived), mouse anti-human IL-8 mAb 6712.111 R & D Systems, and control antibody. All incubations were performed in 96 well Multiscreen filter plates (Millipore, Bedford, Mass.). Plates were washed extensively with cold 0.1% PBA, and filters were counted on a Wallac gamma counter. Results are shown in FIGS. 7A and 7B, expressed as means of triplicate or quadruplicates. The inhibition of binding is expressed as percentage of control antibody.

[4] = target: T2, recombinant human IL-8 (form not stated …); test: SPR, BIAcore 3000, IL-8 amine-coupled on CM-5 chip, 25° C.; half-life of the complex
Procedure: (§2) Affinity constants for 10F8 Fab were determined and compared with corresponding values of 10F8 IgG1,κ. Whole IgG molecules lead to rebinding effects during the dissociation phase of experimental procedures to determine the affinity constants, thus leading to an apparently lower dissociation rate constant and in turn, much higher affinity constant. To eliminate these artifactual avidity effects, Fab molecules were used in the place of IgG1,κ to determine the affinity and rate constants. A CM-5 chip was used to immobilize IL-8 via amine coupling.

[5] = target: T2, recombinant human IL-8 (form not stated …); test: SPR, BIAcore 3000, IL-8 amine-coupled on CM-5 chip, 25° C.
Procedure: as §2

[6] = target: T2, recombinant human IL-8 (form not stated …); test: inhibition of 0.25 nM [125I]-IL-8 binding to human neutrophils (CXCR1 and CXCR2), filter plate assay
Procedure: as §1
In the experiment shown in FIG. 7B, the IC₅₀s of 10F8 (hybridoma-derived) (10F8 H) and 10F8 (transfectoma-derived) (10F8 T) were 0.19 nM and 0.30 nM, respectively.

[7] = target: T2, recombinant human IL-8 (form not stated …); test: SPR, BIAcore 3000, IL-8 amine-coupled on CM-5 chip, 37° C.; half-life of the complex
Procedure: as §2

rh-IP-10 = target: T3, rh-IP-10; test: ELISA, plate coated with 1 µg/mL rh-IP-10, HuMab 10F8 titrated 1:3 from 20 µg/mL, HRP anti-human IgG, A405
Procedure: (§3) Possible cross-reactivity of HuMab 10F8 clone towards other chemokines was evaluated by ELISA. Briefly, microtiter ELISA plates (Greiner, Germany) were coated overnight at room temperature (RT) with 1 μg/mL of recombinant human (rh) GRO-α, rh-GRO-β, rh-IP-10, rh-IL-8 72 aa form, which is monocyte derived (IL-8M or IL-8Mpepretech) or rh-IL-8 77 aa form (IL-8E), which is endothelial cell derived, 100 μl per well. Plates were washed twice with PBST (phosphate buffered saline supplemented with 0.05% v/v Tween-20 (Fischer Scientific, USA)) and wells were blocked with 100 […] PBSTC (PBST plus 2% v/v chicken serum) for 1 hour, RT. Thereafter, wells were incubated for 1 hour, RT under shaking conditions with HuMab-IL-8 clone 10F8, 20 μg/mL 1:3 diluted in PBSTC. Subsequently, wells were washed thrice with PBST and incubated with either HRP-conjugated rabbit anti-mouse IgG F(ab′)₂ fragments (Jackson; diluted 1:3000 in PBSTC) or HRP-conjugated rabbit anti-human IgG F(ab′)₂ (DAKO, Denmark; diluted 1:2000 in PBSTC) for the detection of mouse or human antibodies, respectively.

[8] = target: T4, recombinant human (rh) GRO-α; test: ELISA, plate coated with 1 µg/mL rh-GRO-α, HuMab 10F8 titrated 1:3 from 20 µg/mL, HRP anti-human IgG, A405
Procedure: as §3

[9] = target: T2, recombinant human IL-8 (form not stated …); test: SPR, BIAcore 3000, IL-8 amine-coupled on CM-5 chip, 37° C.
Procedure: as §2

rh-GRO-β = target: T5, rh-GRO-β; test: ELISA, plate coated with 1 µg/mL rh-GRO-β, HuMab 10F8 titrated 1:3 from 20 µg/mL, HRP anti-human IgG, A405
Procedure: as §3

[10] = target: T1, rh-IL-8 72 aa form, monocyte derived; test: ELISA, plate coated with 1 µg/mL rh-IL-8 72 aa form (curve IL-8Mpeprotec), HuMab 10F8 titrated 1:3 from 20 µg/mL, HRP anti-human IgG, A405
Procedure: as §3

[11] = target: T1, rh-IL-8 72 aa form, monocyte derived; test: ELISA, plate coated with 1 µg/mL rh-IL-8 72 aa form (curve IL-8M), HuMab 10F8 titrated 1:3 from 20 µg/mL, HRP anti-human IgG, A405
Procedure: as §3

Row | Half-life (1n (2/k_off hrs)) [4] | Kd [5] | koff [5] | kon [5] | IC50 [6] | Half-life (1n (2/k_off hrs)) [7] | Kd [9] | koff [9] | kon [9] | Molecule | further results
1 |  |  |  |  |  |  |  |  |  | irrelevant human isotype control antibody (Example 8) | expression level of CD11b on IL-8 stimulated PMN (MFI) [1]: 2400 MFI; expression of CD62L on IL-8 stimulated PMN (MFI) [1]: 150 MFI
2 |  |  |  |  |  |  |  |  |  | mouse anti-human IL-8 mAb 6712.111 (R & D Systems) (antibody) | IC50 (read off the curve) [2]: 0.5 nM
3 | 90.4 h | 0.01 nM | 2.1e-06 s⁻¹ | 231000 M⁻¹ s⁻¹ | 0.19 nM | 38.2 h | 0.02 nM | 5.4e-06 s⁻¹ | 275000 M⁻¹ s⁻¹ | HuMab 10F8 (hybridoma-derived), human monoclonal IgG1,κ antibody (antibody, V domains shown, Purified from hybridoma culture supernatant by Protein A; also called HuMab-IL-8 clone 10F8; HuMab-IL-8 (10F8)) VH: QVQLVESGGGVVQPGRSLRLSCTASGFTFSHYGMYWVRQAPGKGLEWVAVIWYDGSYEYNEDSVKGRFTISRDNSKNTLYLQMNSLRAEDTAVYYCARDRVGLFDYWGQGTLVTVSS VL: EIVLTQSPGTLSLSPGERATLSCRASQSISSSYLAWYQQKPGQAPRLLIYGPSSRATGIPDRFSGSGSGTDFTLTISRLEPEDFAVYYCQQYAGSLTFGPGTKVDIK | IC50 (read off the curve) [3]: ~0.2 nM; binding result (rh-IP-10): no binding (tested: 20 µg/ml); binding result [8]: no binding (tested: 20 µg/ml); binding result (rh-GRO-β): no binding (tested: 20 µg/ml); EC50 (read off the curve) [10]: ~0.2 µg/mL; EC50 (read off the curve) [11]: ~0.4 µg/mL
4 | 8.3 h | 0.194 nM | 1.96e-05 s⁻¹ | 101000 M⁻¹ s⁻¹ |  | 4.9 h | 0.372 nM | 3.94e-05 s⁻¹ | 106000 M⁻¹ s⁻¹ | 10F8 Fab (Fab fragment prepared from HuMab 10F8 IgG) (Fab, V domains shown) VH: QVQLVESGGGVVQPGRSLRLSCTASGFTFSHYGMYWVRQAPGKGLEWVAVIWYDGSYEYNEDSVKGRFTISRDNSKNTLYLQMNSLRAEDTAVYYCARDRVGLFDYWGQGTLVTVSS VL: EIVLTQSPGTLSLSPGERATLSCRASQSISSSYLAWYQQKPGQAPRLLIYGPSSRATGIPDRFSGSGSGTDFTLTISRLEPEDFAVYYCQQYAGSLTFGPGTKVDIK | 
5 |  |  |  |  | 0.3 nM |  |  |  |  | HuMab 10F8 (transfectoma-derived), recombinant 10F8 produced from CHO cells (antibody, V domains shown) VH: QVQLVESGGGVVQPGRSLRLSCTASGFTFSHYGMYWVRQAPGKGLEWVAVIWYDGSYEYNEDSVKGRFTISRDNSKNTLYLQMNSLRAEDTAVYYCARDRVGLFDYWGQGTLVTVSS VL: EIVLTQSPGTLSLSPGERATLSCRASQSISSSYLAWYQQKPGQAPRLLIYGPSSRATGIPDRFSGSGSGTDFTLTISRLEPEDFAVYYCQQYAGSLTFGPGTKVDIK | 

Reference: US20160280780A1 (CORMORANT PHARMACEUTICALS, published 2016)
